The labels stand for the following.
B1: Pistol ribozyme (parent)
chain: GGGUCGUUGUUCCAUAAUCGCGUGGAUAUGGCACGCAAGUUUCUACCGGGCACCGUAAAUGUCCGACUGGAGCCGUUCGGGCGGCUAUAAACAGACCUCAGGCCCGAAGCGUGGCGGCACCUGCCGCCGGUGGUAAAAAAGAUCGGAAGAGCACACGUCU

The variants in this data set derive from B1. The data set is described as follows: aptazyme ON/OFF ratio, guanine; higher = stronger switching; co-transcriptional cleavage with and without guanine.
On to U7G U8A G9A U10G U11A C13G, for which the “aptazyme ON/OFF ratio” value is 1.06.

On to U7G U8A G9A U10G U11A C13U, for which the “aptazyme ON/OFF ratio” value was determined as 1.03.

Take U7G U8A G9C U10C C12U C13G: the “aptazyme ON/OFF ratio” value stood at 1.01.

On to U7G U8A G9C U10C C12U C13A, for which the “aptazyme ON/OFF ratio” value turned out to be 1.04.

As for U7G U8A G9C U10C C12U C13U, the “aptazyme ON/OFF ratio” value stood at 1.01.

Turning to U7G U8A G9A U10G U11A C12A, the “aptazyme ON/OFF ratio” value is 1.12.

As for U7G U8A G9A U10G U11A C12U, the “aptazyme ON/OFF ratio” value is 0.997.

Consider U7G U8A G9A U10G U11A C12G, for which the “aptazyme ON/OFF ratio” value was found to be 1.11.

On to U7G U8A G9C U10A U11G C12A C13U, for which the “aptazyme ON/OFF ratio” value was 1.04.

For U7G U8A G9C U10A U11G C12A C13A, the “aptazyme ON/OFF ratio” value was 1.05.

With U7G U8A G9C U10A U11G C12A C13G, the “aptazyme ON/OFF ratio” value turned out to be 1.05.

As for U7G U8A G9A U11G C12U, the “aptazyme ON/OFF ratio” value was determined as 1.44.

Take U7G U8A G9A U11G C12G: the “aptazyme ON/OFF ratio” value is 1.41.

Take U7G U8A G9A U11G C12A: the “aptazyme ON/OFF ratio” value was 1.08.

Turning to U7G U8A G9C U10A U11A C13A, the “aptazyme ON/OFF ratio” value is 1.05.

On to U7G U8A G9C U10A U11A C13U, for which the “aptazyme ON/OFF ratio” value was 1.04.

Regarding U7G U8A G9C U10A U11A C13G, the “aptazyme ON/OFF ratio” value was 1.04.

On to U7G U8A G9C U10A U11A C12U C13A, for which the “aptazyme ON/OFF ratio” value was 1.04.

In the case of U7G U8A G9C U10A U11A C12U C13G, the “aptazyme ON/OFF ratio” value was 1.05.

Turning to U7G U8A G9C U10A U11A C12U C13U, the “aptazyme ON/OFF ratio” value was 1.05.

With U7G U8A G9A U11G C12G C13U, the “aptazyme ON/OFF ratio” value stood at 1.1.

As for U7G U8A G9A U11G C12G C13A, the “aptazyme ON/OFF ratio” value amounted to 1.14.

In the case of U7G U8A G9A U11G C12G C13G, the “aptazyme ON/OFF ratio” value is 1.14.

U7G U8A G9C U10A U11A C12G: the “aptazyme ON/OFF ratio” value was found to be 1.03.

As to U7G U8A G9C U10A U11A C12A, the “aptazyme ON/OFF ratio” value amounted to 1.03.

As for U7G U8A G9C U10A U11A C12U, the “aptazyme ON/OFF ratio” value came to 1.03.

On to U7G U8A G9C U10A U11C C13A, for which the “aptazyme ON/OFF ratio” value came out at 1.04.

As to U7G U8A G9C U10A U11C C13U, the “aptazyme ON/OFF ratio” value was 1.04.

In the case of U7G U8A G9C U10A U11C C13G, the “aptazyme ON/OFF ratio” value was determined as 1.04.

Consider U7G U8A G9A U11G, for which the “aptazyme ON/OFF ratio” value stood at 1.26.

In the case of U7G U8A G9A U11A, the “aptazyme ON/OFF ratio” value is 1.45.

U7G U8A G9A U11C: the “aptazyme ON/OFF ratio” value was determined as 1.03.

For U7G U8A G9A U10C U11G C12A C13A, the “aptazyme ON/OFF ratio” value is 1.07.

For U7G U8A G9A U10C U11G C12A C13U, the “aptazyme ON/OFF ratio” value was determined as 1.13.

Regarding U7G U8A G9A U10C U11G C12A C13G, the “aptazyme ON/OFF ratio” value stood at 1.07.

In the case of U7G U8A G9A U10A U11G C13U, the “aptazyme ON/OFF ratio” value is 1.16.

For U7G U8A G9A U10A U11G C13G, the “aptazyme ON/OFF ratio” value is 1.07.

For U7G U8A G9A U10A U11G C13A, the “aptazyme ON/OFF ratio” value is 1.14.

Turning to U7G U8A G9C U10C U11A C13A, the “aptazyme ON/OFF ratio” value worked out at 1.1.

Turning to U7G U8A G9C U10C U11A C13G, the “aptazyme ON/OFF ratio” value was found to be 1.06.

In the case of U7G U8A G9C U10C U11A C13U, the “aptazyme ON/OFF ratio” value was 1.1.

As for U7G U8A G9C C12G C13U, the “aptazyme ON/OFF ratio” value is 1.06.

Consider U7G U8A G9C C12G C13G, for which the “aptazyme ON/OFF ratio” value was 1.04.

In the case of U7G U8A G9C C12G C13A, the “aptazyme ON/OFF ratio” value stood at 1.02.

Take U7G U8A G9A U10G U11G C12U C13G: the “aptazyme ON/OFF ratio” value was determined as 1.18.

In the case of U7G U8A G9A U10G U11G C12U C13U, the “aptazyme ON/OFF ratio” value came out at 1.17.

For the variant U7G U8A G9A U10G U11G C12U C13A, the “aptazyme ON/OFF ratio” value turned out to be 1.4.

In the case of U7G U8A G9C U10A U11G C13A, the “aptazyme ON/OFF ratio” value was found to be 1.02.

Regarding U7G U8A G9C U10A U11G C13U, the “aptazyme ON/OFF ratio” value turned out to be 1.02.

Regarding U7G U8A G9C U10A U11G C13G, the “aptazyme ON/OFF ratio” value was 1.05.

On to U7G U8A G9C U10A U11C C12A C13A, for which the “aptazyme ON/OFF ratio” value turned out to be 1.04.

For U7G U8A G9C U10A U11C C12A C13U, the “aptazyme ON/OFF ratio” value is 1.03.

On to U7G U8A G9C U10A U11C C12A C13G, for which the “aptazyme ON/OFF ratio” value is 1.01.

Regarding U7G U8A G9A U10C U11A C13G, the “aptazyme ON/OFF ratio” value was found to be 1.07.

In the case of U7G U8A G9A U10C U11A C13U, the “aptazyme ON/OFF ratio” value was 1.12.

Consider U7G U8A G9A U10C U11A C13A, for which the “aptazyme ON/OFF ratio” value came out at 1.08.

Take U7G U8A G9A U10C U11C C12G C13G: the “aptazyme ON/OFF ratio” value was determined as 1.03.

For U7G U8A G9A U10C U11C C12G C13U, the “aptazyme ON/OFF ratio” value is 1.08.

Regarding U7G U8A G9A U10C U11C C12G C13A, the “aptazyme ON/OFF ratio” value was 1.09.

In the case of U7G U8A G9A U10A U11G C12A C13U, the “aptazyme ON/OFF ratio” value stood at 1.07.

Regarding U7G U8A G9A U10A U11G C12A C13G, the “aptazyme ON/OFF ratio” value turned out to be 1.06.

Take U7G U8A G9A U10A U11G C12A C13A: the “aptazyme ON/OFF ratio” value came out at 1.07.

Take U7G U8A G9A U10C C12G C13G: the “aptazyme ON/OFF ratio” value amounted to 1.11.

For U7G U8A G9A U10C C12G C13U, the “aptazyme ON/OFF ratio” value is 1.28.

Take U7G U8A G9A U10C C12G C13A: the “aptazyme ON/OFF ratio” value was found to be 1.11.

For U7G U8A G9C U10C U11A C12U, the “aptazyme ON/OFF ratio” value was 1.07.

With U7G U8A G9C U10C U11A C12G, the “aptazyme ON/OFF ratio” value worked out at 1.05.

Consider U7G U8A G9C U10C U11A C12A, for which the “aptazyme ON/OFF ratio” value was 1.03.

As for U7G U8A G9A U10C U11C C13G, the “aptazyme ON/OFF ratio” value turned out to be 1.02.

With U7G U8A G9A U10C U11C C13A, the “aptazyme ON/OFF ratio” value was 1.04.

With U7G U8A G9A U10C U11C C13U, the “aptazyme ON/OFF ratio” value was determined as 1.03.

For the variant U7G U8A G9C U10C U11A C12G C13A, the “aptazyme ON/OFF ratio” value is 1.03.

Regarding U7G U8A G9C U10C U11A C12G C13G, the “aptazyme ON/OFF ratio” value is 1.05.

Regarding U7G U8A G9C U10C U11A C12G C13U, the “aptazyme ON/OFF ratio” value amounted to 1.09.

Take U7G U8A G9A U10G U11G C13U: the “aptazyme ON/OFF ratio” value worked out at 1.26.

Take U7G U8A G9A U10G U11G C13G: the “aptazyme ON/OFF ratio” value was found to be 1.34.

For U7G U8A G9A U10G U11G C13A, the “aptazyme ON/OFF ratio” value was 1.29.

On to U7G U8A G9C, for which the “aptazyme ON/OFF ratio” value amounted to 1.12.

On to U7G U8A G9A U10G U11C C13A, for which the “aptazyme ON/OFF ratio” value was found to be 1.09.

Turning to U7G U8A G9A U10G U11C C13U, the “aptazyme ON/OFF ratio” value was 1.05.

Take U7G U8A G9A U10G U11C C13G: the “aptazyme ON/OFF ratio” value is 1.08.

Consider U7G U8A G9A U10A U11A C12G C13U, for which the “aptazyme ON/OFF ratio” value was determined as 1.14.

Regarding U7G U8A G9A U10A U11A C12G C13A, the “aptazyme ON/OFF ratio” value was 1.1.

The record behind these values is the RNAGym collection of RNA variant scans (doi:10.1021/acssynbio.7b00057).
